Data published in US6534640B1, “Methods and compositions to alter the cell surface expression of phosphatidylserine and other clot-promoting plasma membrane phospholipids” (Blood Center Research Foundation, priority 1996, dated 2003).

T1: mouse PL scramblase (Mus musculus, UniProt Q9DCW2)
T1 construct: made in house; host or cells: E. coli TB1 (pMAL-C2)
T1 sequence (Q9DCW2 1-307): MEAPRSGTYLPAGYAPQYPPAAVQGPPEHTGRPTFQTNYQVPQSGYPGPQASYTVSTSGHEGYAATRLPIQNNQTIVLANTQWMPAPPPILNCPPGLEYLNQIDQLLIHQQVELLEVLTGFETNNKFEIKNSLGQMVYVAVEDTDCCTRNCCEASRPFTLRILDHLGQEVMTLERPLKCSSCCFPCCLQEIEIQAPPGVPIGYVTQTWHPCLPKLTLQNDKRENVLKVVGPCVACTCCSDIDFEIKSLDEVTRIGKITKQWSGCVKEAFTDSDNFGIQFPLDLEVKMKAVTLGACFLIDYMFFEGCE


Tests used:
mouse PL scramblase = biological target: T1, mouse PL scramblase; test: PL scramblase activity of recombinant mouse protein in reconstituted PC/PS proteoliposomes; type: biochemical; details: 420 pmoles protein, 1 μmol PL
Method: Expression and Purification of Mouse PL Scramblase-MBP Fusion Protein: Mouse PL scramblase was expressed as fusion protein with MBP in E. coli TB1 and purified on amylose resin as previously described for human PL scramblase (Q. Zhou, et al., J. Biol. Chem. 272:18240-18244, 1997). The purified fusion protein was centrifuged at 106,000×g for 1 hour at 4° C. to remove aggregated protein.
(§1) Reconstitution and Functional Activity of PL Scramblase: Reconstitution, removal of MBP, and functional assay of PL scramblase were performed as previously described (F. Bassé, et al., J. Biol. Chem. 271:17205-17210, 1996; Q. Zhou, et al., supra, 1997; J. G. Stout, et al., J. Clin. Invest. 99:2232-2238, 1997). Routinely, 420 pmoles of protein were reconstituted with 1 μmol of PL. To remove MBP, proteoliposomes were incubated 3 hours at room temperature with 1/40 (w/w) factor Xa. The digest was terminated by addition of 100 μM Glu-Gly-Arg chloromethyl ketone. Proteoliposomes labeled with NBD-PC were incubated for 2 hours at 37° C. in Tris buffer in the presence or absence of CaCl2 as indicated in figure legends and diluted 25-fold in Tris buffer containing 4 mM EGTA. Initial fluorescence was recorded (SLM Aminco 8000 spectrofluorimeter; excitation at 470 nm, emission at 532 nm), 20 mM dithionite was added, and the fluorescence was continuously monitored for a total of 120 seconds. Scramblase activity was calculated according to the difference in non-quenchable fluorescence observed in presence vs absence of CaCl2. Ionized [Ca^2+] was calculated using FreeCal version 4.0 software (generously provided by Dr. Lawrence F. Brass, University of Pennsylvania, Philadelphia, Pa.).
Functional Activity of Recombinant Mouse PL Scramblase. In order to confirm that the cDNA identified as mouse PL scramblase encodes a protein of similar function to that identified in human, the human and mouse proteins were each expressed in E. coli, purified, and reconstituted in proteoliposomes for measurement of PL mobilizing activity. Mouse or human PL scramblase-MBP fusion protein (420 pmoles) was reconstituted into PC/PS liposomes (1 μmol total PL), respectively, MBP was removed by digestion of the proteoliposomes with factor Xa, and PL scramblase activity was determined as described under “Experimental Procedures” and plotted as a function of external free [Ca^2+]. The results of this experiment indicate that recombinant mouse PL scramblase mediated a Ca^2+-dependent transbilayer movement of membrane PL with a specific activity and affinity for Ca^2+ indistinguishable from that observed for the recombinant human protein.

human PL scramblase = test: PL scramblase activity: Ca2+-dependent transbilayer movement of NBD-PC in reconstituted PC/PS proteoliposomes; type: biochemical; details: for apparent avidity for Ca2+ of mutant human PL scramblase: activity as function of external free [Ca2+]; for PL scramblase function of Ala-substituted mutants of the EF-hand loop vs wild type: mutant human PL scramblase, 2 mM CaCl2
Method: Reconstitution of PL scramblase or scramblase fusion protein into proteoliposomes. Reconstitution and functional activity were performed essentially as previously described (F. Bassé, et al., J. Biol. Chem. 271:17205-17210, 1996; J. G. Stout, et al., J. Clin. Invest. 99:2232-2238, 1997). Briefly, a mixture of PC and PS (9:1 molar ratio) was dried under a stream of nitrogen and resuspended in 100 mM Tris, 100 mM KCl, 0.1 mM EGTA, pH 7.4 (Tris buffer). Protein samples to be reconstituted were added to the liposomes at a final lipid concentration of 4 mg/ml in the presence of 60 mM OG, and dialyzed overnight at 4° C. against 200 vol of Tris buffer containing 1 g/L Bio-Beads SM-2. To liberate PL scramblase from MBP, the proteoliposomes were incubated 3 h at room temperature in the presence of 1/40 (w/w) factor Xa. The digestion was terminated by addition of 100 μM Glu-Gly-Arg chloromethyl ketone. Completeness of the digest was monitored by SDS-PAGE. Following dialysis, the proteoliposomes were labeled in the outer leaflet by addition of 0.25 mol % fluorescent NBD-PC (in dimethyl sulfoxide, final solvent concentration 0.25%).
PL Scramblase activity. Scramblase activity was measured as previously described (F. Bassé, et al., supra, 1996; J. G. Stout, et al., supra, 1997 and in U.S. Ser. No. 08/790,186). Routinely, proteoliposomes labeled with NBD-PC were incubated for 2 hours at 37° C. in Tris buffer in the presence or absence of 2 mM CaCl2. Proteoliposomes were diluted 25-fold in Tris buffer containing 4 mM EGTA and transferred to a stirred fluorescence cuvet at 23° C. Initial fluorescence was recorded (SLM Aminco 8000 spectrof luorimeter; excitation at 470 nm, emission at 532 nm), 20 mM dithionite was added, and the fluorescence continuously monitored for a total of 120 seconds. The difference in non-quenchable fluorescence observed in presence vs. absence of CaCl2 Was attributed to Ca^2+-induced change in NBD-PC located in the outer leaflet (F. Bassé, et al., supra, 1996; J. G. Stout, et al., supra, 1997; J. C. McIntyre and R.G. Sleight, Biochemistry 30:11819-11827, 1991). Ionized [Ca^2+] was calculated using FreeCal version 4.0 software (generously provided by Dr. Lawrence F. Brass, University of Pennsylvania, Philadelphia, Pa.).
as §1
Mutagenesis of PL Scramblase: Human PL scramblase amino acid residues in EF-hand Ca^2+-binding motif at positions of Asp^273, Asp^275, Phe^277, Ile^279, Phe^281 and Asp^284 were mutated to Ala with oligonucleotide-directed mutagenesis by two rounds of PCR. […]

Molecule | affinity for Ca2+ compared with recombinant human protein (mouse PL scramblase) | specific activity (Ca2+-dependent transbilayer movement of membrane PL) compared with recombinant human protein (mouse PL scramblase) | affinity for Ca2+ compared with recombinant human protein (mouse PL scramblase; listed as murine PL scramblase) | specific activity (Ca2+-dependent transbilayer movement of membrane PL) compared with recombinant human protein (mouse PL scramblase; listed as murine PL scramblase) | apparent avidity for Ca2+ of mutant human PL scramblase (human PL scramblase) | PL scramblase function of Ala-substituted mutants of the EF-hand loop vs wild type (human PL scramblase)
recombinant mouse PL scramblase: Recombinant murine PL scramblase (SEQ ID NO:4), 307 residues, expressed in E. coli (protein, listed as Mus musculus) MEAPRSGTYLPAGYAPQYPPAAVQGPPEHTGRPTFQTNYQVPQSGYPGPQASYTVSTSGHEGYAATRLPIQNNQTIVLANTQWMPAPPPILNCPPGLEYLNQIDQLLIHQQVELLEVLTGFETNNKFEIKNSLGQMVYVAVEDTDCCTRNCCEASRPFTLRILDHLGNEVMTLERPLRCSSCCFPCCLQEIEIQAPPGVPIGYVTQTWHPCLPKLTLQNDLRENVLKVVGPCVACTCCSDISFEIKSLDEVTRIGLITLQWSGCVLEAFTDSDNFGIQFPLDLEVKMKAVTLGACFLIDYMFFEGCE | indistinguishable | indistinguishable | virtually the same | the same activity | – | –
Asp275: Mutant human PL scramblase with Ala substitution at Asp275 (EF-hand loop position 3) (protein, UniProt O15162 1-318, looked up, variant D275A) Phospholipid scramblase 1: MDKQNSQMNASHPETNLPVGYPPQYPPTAFQGPPGYSGYPGPQVSYPPPPAGHSGPGPAGFPVPNQPVYNQPVYNQPVGAAGVPWMPAPQPPLNCPPGLEYLSQIDQILIHQQIELLEVLTGFETNNKYEIKNSFGQRVYFAAEDTDCCTRNCCGPSRPFTLRIIDNMGQEVITLERPLRCSSCCCPCCLQEIEIQAPPGVPIGYVIQTWHPCLPKFTIQNEKREDVLKISGPCVVCSCCGDVDFEIKSLDEQCVVGKISKHWTGILREAFTDAANFGIQFPLDLDVKMKAVMIGACFLIDFMFFESTGSQEQKSGVW | – | – | – | – | significant reduction | complete inactivation
Asp273: Mutant human PL scramblase with Ala substitution at Asp273 (EF-hand loop position 1) (protein, listed as Homo sapiens) MDKQNSQMNASHPETNLPVGYPPQYPPTAFQGPPGYSGYPGPQVSYPPPPAGHSGPGPAGFPVPNQPVYNQPVYNQPVGAAGVPWMPAPQPPLNCPPGLEYLSQIDQILIHQQIELLEVLTGFETNNKYEIKNSFGQRVYFAAEDTDCCTRNCCGPSRPFTLRIIDNMGQEVITLERPLRCSSCCCPCCLQEIEIQAPPGVPIGYVIQTWHPCLPKFTIQNEKREDVLKISGPCVVCSCCGDVDFEIKSLDEQCVVGKISKHWTGILREAFTAADNFGIQFPLDLDVKMKAVMIGACFLIDFMFFESTGSQEQKSGVW | – | – | – | – | significant reduction | partial loss of function
Asp284: Mutant human PL scramblase with Ala substitution at Asp284 (EF-hand loop position 12) (protein, UniProt O15162 1-318, looked up, variant D284A) Phospholipid scramblase 1: MDKQNSQMNASHPETNLPVGYPPQYPPTAFQGPPGYSGYPGPQVSYPPPPAGHSGPGPAGFPVPNQPVYNQPVYNQPVGAAGVPWMPAPQPPLNCPPGLEYLSQIDQILIHQQIELLEVLTGFETNNKYEIKNSFGQRVYFAAEDTDCCTRNCCGPSRPFTLRIIDNMGQEVITLERPLRCSSCCCPCCLQEIEIQAPPGVPIGYVIQTWHPCLPKFTIQNEKREDVLKISGPCVVCSCCGDVDFEIKSLDEQCVVGKISKHWTGILREAFTDADNFGIQFPLALDVKMKAVMIGACFLIDFMFFESTGSQEQKSGVW | – | – | – | – | significant reduction | partial loss of function
